Assay results from US20230250154A1 (CYTONICS, published 2023).

T1: Cathepsin G (UniProt P08311 21-244)
T1 sequence (looked up): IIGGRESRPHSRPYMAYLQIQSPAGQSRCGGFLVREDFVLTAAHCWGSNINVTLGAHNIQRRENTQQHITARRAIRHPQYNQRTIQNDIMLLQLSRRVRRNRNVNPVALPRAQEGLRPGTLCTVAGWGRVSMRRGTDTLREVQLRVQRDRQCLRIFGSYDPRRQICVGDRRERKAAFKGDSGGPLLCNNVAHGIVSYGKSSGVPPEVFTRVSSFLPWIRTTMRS

T2: MMP1 (human, UniProt P03956 100-469, limits assumed)
T2 sequence (looked up): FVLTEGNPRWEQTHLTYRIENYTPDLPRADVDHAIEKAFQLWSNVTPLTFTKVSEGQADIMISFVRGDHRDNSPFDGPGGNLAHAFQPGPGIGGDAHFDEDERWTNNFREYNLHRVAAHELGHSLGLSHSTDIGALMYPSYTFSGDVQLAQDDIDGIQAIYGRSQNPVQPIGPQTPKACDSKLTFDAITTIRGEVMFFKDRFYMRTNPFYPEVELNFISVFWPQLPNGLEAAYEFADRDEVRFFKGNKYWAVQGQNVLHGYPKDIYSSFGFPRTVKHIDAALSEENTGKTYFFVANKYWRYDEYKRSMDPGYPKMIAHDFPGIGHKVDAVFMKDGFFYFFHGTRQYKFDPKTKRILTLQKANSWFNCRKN


Legend:
Experiment in all cases: cell-based or functional assay
[1] = target: Elastase
[2] = target: T1, Cathepsin G
[3] = target: T2, MMP1

Binder	Protease Inhibition (% of WT) [1]	Protease Inhibition (% of WT) [2]	Protease Inhibition (% of WT) [3]
Variant A2M, bait region SEQ ID NO 142 (other) SVSGKPQYMVLVPSLLHTETTEKGCVLLSYLNETVTVSASLESVRGNRSLFTDLEAENDVLHCVAFAVPKSSSNEEVMFLTVQVKGPTQEFKKRTTVMVKNEDSLVFVQTDKSIYKPGQTVKFRVVSMDENFHPLNELIPLVYIQDPKGNRIAQWQSFQLEGGLKQFSFPLSSEPFQGSYKVVVQKKSGGRTEHPFTVEEFVLPKFEVQVTVPKIITILEEEMNVSVCGLYTYGKPVPGHVTVSICRKYSDASDCHGEDSQAFCEKFSGQLNSHGCFYQQVKTKVFQLKRKEYEMKLHTEAQIQEEGTVVELTGRQSSEITRTITKLSFVKVDSHFRQGIPFFGQVRLVDGKGVPIPNKVIFIRGNEANYYSNATTDEHGLVQFSINTTNVMGTSLTVRVNYKDRSPCYGYQWVSEEHEEAHHTAYLVFSPSKSFVHLEPMSHELPCGHTQTVQAHYILNGGTLLGLKKLSFYYLIMAKGGIVRTGTHGLLVKQEDMKGHFSISIPVKSDIAPVARLLIYAVLPTGDVIGDSAKYDVENCLANKVDLSFSPSQSLPASHAHLRVTAAPQSVCALRAVDQSVLLMKPDAELSASSVYNLLPEKDLTGFPGPLNDQDDEDCINRHNVYINGITYTPVSSTNEKDMYSFLEDMGLKAFTNSKIRKPKMCPQLEQYEMHGPSELEGRGSIPENFFGVEGEGEGEGKEEEGLGSVEEPHTKLRKYFPETWIWDLVVVNSAGVAEVGVTVPDTITEWKAGAFCLSEDAGLGISSTASLRAFQPFFVELTMPYSVIRGEAFTLKATVLNYLPKCIRVSVQLEASPAFLAVPVEKEQAPHCICANGRQTVSWAVTPKSLGNVNFTVSAEALESQELCGTEVPSVPEHGRKDTVIKPLLVEPEGLEKETTFNSLLCPSGGEVSEELSLKLPPNVVEESARASVSVLGDILGSAMQNTQNLLQMPYGCGEQNMVLFAPNIYVLDYLNETQQLTPEIKSKAIGYLNTGYQRQLNYKHYDGSYSTFGERYGRNQGNTWLTAFVLKTFAQARAYIFIDEAHITQALIWLSQRQKDNGCFRSSGSLLNNAIKGGVEDEVTLSAYITIALLEIPLTVTHPVVRNALFCLESAWKTAQEGDHGSHVYTKALLAYAFALAGNQDKRKEVLKSLNEEAVKKDNSVHWERPQKPKAPVGHFYEPQAPSAEVEMTSYVLLAYLTAQPAPTSEDLTSATNIVKWITKQQNAQGGFSSTQDTVVALHALSKYGAATFTRTGKAAQVTIQSSGTFSSKFQVDNNNRLLLQQVSLPELPGEYSMKVTGEGCVYLQTSLKYNILPEKEEFPFALGVQTLPQTCDEPKAHTSFQISLSVSYTGSRSASNMAIVDVKMVSGFIPLKPTVKMLERSNHVSRTEVSSNHVLIYLDKVSNQTLSLFFTVLQDVPVRDLKPAIVKVYDYYETDEFAIAEYNAPCSKDLGNADYKDDDDKGASHHHHHH	200 % of WT	300 % of WT	350 % of WT
Variant A2M, bait region SEQ ID NO 139 (other) SVSGKPQYMVLVPSLLHTETTEKGCVLLSYLNETVTVSASLESVRGNRSLFTDLEAENDVLHCVAFAVPKSSSNEEVMFLTVQVKGPTQEFKKRTTVMVKNEDSLVFVQTDKSIYKPGQTVKFRVVSMDENFHPLNELIPLVYIQDPKGNRIAQWQSFQLEGGLKQFSFPLSSEPFQGSYKVVVQKKSGGRTEHPFTVEEFVLPKFEVQVTVPKIITILEEEMNVSVCGLYTYGKPVPGHVTVSICRKYSDASDCHGEDSQAFCEKFSGQLNSHGCFYQQVKTKVFQLKRKEYEMKLHTEAQIQEEGTVVELTGRQSSEITRTITKLSFVKVDSHFRQGIPFFGQVRLVDGKGVPIPNKVIFIRGNEANYYSNATTDEHGLVQFSINTTNVMGTSLTVRVNYKDRSPCYGYQWVSEEHEEAHHTAYLVFSPSKSFVHLEPMSHELPCGHTQTVQAHYILNGGTLLGLKKLSFYYLIMAKGGIVRTGTHGLLVKQEDMKGHFSISIPVKSDIAPVARLLIYAVLPTGDVIGDSAKYDVENCLANKVDLSFSPSQSLPASHAHLRVTAAPQSVCALRAVDQSVLLMKPDAELSASSVYNLLPEKDLTGFPGPLNDQDDEDCINRHNVYINGITYTPVSSTNEKDMYSFLEDMGLKAFTNSKIRKPKMCPQLEQYEMHGPSEDLVVQIEGEGEGEGIPENFFGVEAIPMSIPTEPHTKLRKYFPETWIWDLVVVNSAGVAEVGVTVPDTITEWKAGAFCLSEDAGLGISSTASLRAFQPFFVELTMPYSVIRGEAFTLKATVLNYLPKCIRVSVQLEASPAFLAVPVEKEQAPHCICANGRQTVSWAVTPKSLGNVNFTVSAEALESQELCGTEVPSVPEHGRKDTVIKPLLVEPEGLEKETTFNSLLCPSGGEVSEELSLKLPPNVVEESARASVSVLGDILGSAMQNTQNLLQMPYGCGEQNMVLFAPNIYVLDYLNETQQLTPEIKSKAIGYLNTGYQRQLNYKHYDGSYSTFGERYGRNQGNTWLTAFVLKTFAQARAYIFIDEAHITQALIWLSQRQKDNGCFRSSGSLLNNAIKGGVEDEVTLSAYITIALLEIPLTVTHPVVRNALFCLESAWKTAQEGDHGSHVYTKALLAYAFALAGNQDKRKEVLKSLNEEAVKKDNSVHWERPQKPKAPVGHFYEPQAPSAEVEMTSYVLLAYLTAQPAPTSEDLTSATNIVKWITKQQNAQGGFSSTQDTVVALHALSKYGAATFTRTGKAAQVTIQSSGTFSSKFQVDNNNRLLLQQVSLPELPGEYSMKVTGEGCVYLQTSLKYNILPEKEEFPFALGVQTLPQTCDEPKAHTSFQISLSVSYTGSRSASNMAIVDVKMVSGFIPLKPTVKMLERSNHVSRTEVSSNHVLIYLDKVSNQTLSLFFTVLQDVPVRDLKPAIVKVYDYYETDEFAIAEYNAPCSKDLGNADYKDDDDKGASHHHHHH	200 % of WT	200 % of WT	400 % of WT
